# In article PMC6635409:
# Where “and” joins values, the source holds several entries; their conditions need not be identical. Identical values can stand only once.
# Molecular target: nicotinic acetylcholine receptor subunit α9 (CHRNA9) (human (endogenous in BT474, MDA-MB-231, A549, RT4, MIA PaCa-2 and clinical breast tumors)) (UniProt Q9UGM1)
# Assay: co-IP; endogenous proteins in MDA-MB-231 cells; reciprocal IPs, 1% NP40 lysis buffer, Protein G beads; IP ratio (IPR) against input, threshold >3% in both
# Sequence of UniProt Q9UGM1 (Q9UGM1 23-479): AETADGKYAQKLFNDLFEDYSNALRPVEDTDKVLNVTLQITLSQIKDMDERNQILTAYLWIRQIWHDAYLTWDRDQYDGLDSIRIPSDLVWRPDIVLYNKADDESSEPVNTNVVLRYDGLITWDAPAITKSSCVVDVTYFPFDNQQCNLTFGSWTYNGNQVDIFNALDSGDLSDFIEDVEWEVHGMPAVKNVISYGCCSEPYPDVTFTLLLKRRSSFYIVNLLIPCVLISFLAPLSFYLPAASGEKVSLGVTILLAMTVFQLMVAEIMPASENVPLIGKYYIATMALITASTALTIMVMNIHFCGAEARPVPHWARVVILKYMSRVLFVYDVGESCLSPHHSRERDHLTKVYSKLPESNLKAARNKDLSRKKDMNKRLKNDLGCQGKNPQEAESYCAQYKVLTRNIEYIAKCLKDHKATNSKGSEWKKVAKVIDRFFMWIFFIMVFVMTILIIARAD
substance,measurement,value
ABCB1 (from UniProt P08183 1-1280) (natural protein),IP ratio (IPR),3.05% and 25.1%
